Laboratory results from US20220162312A1 (WUXI BIOLOGICS IRELAND, published 2022).
Numbering of substitutions follows the chain as printed. Names and notes keep the numbering of the source.

T1: CD20 on Raji cells (CD20+/CD3- cells) (human, UniProt P11836 1-297)
T1 sequence (looked up): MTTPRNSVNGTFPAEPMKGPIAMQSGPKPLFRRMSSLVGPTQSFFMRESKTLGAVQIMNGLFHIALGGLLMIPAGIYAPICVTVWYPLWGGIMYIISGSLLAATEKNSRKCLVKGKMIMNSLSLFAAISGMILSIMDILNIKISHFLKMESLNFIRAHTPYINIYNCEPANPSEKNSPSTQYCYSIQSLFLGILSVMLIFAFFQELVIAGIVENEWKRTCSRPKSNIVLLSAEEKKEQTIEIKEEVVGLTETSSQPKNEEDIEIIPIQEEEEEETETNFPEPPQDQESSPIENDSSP

B1: W3278-U2T3.F18R-1.uIgG4.SP (bispecific antibody)
heavy 1: QVQLQQPGAELVKPGASVKMSCKASGYTFTSYNMHWVKQTPGRGLEWIGAIYPGNGDTSYNQKFKGKATLTADKSSSTAYMQLSSLTSEDSAVYYCARSTYYGGDWYFNVWGAGTTVTVSAASTKGPSVFPLAPCSRSTSESTAALGCLVKDYFPEPVTVSWNSGALTSGVHTFPAVLQSSGLYSLSSVVTVPSSSLGTKTYTCNVDHKPSNTKVDKRVGGGGSGGGGSQVQLVQSGAEVKKPGSSVKVSCKASGFAFTDYYIHWVRQAPGQGLEWMGWISPGNVNTKYNENFKGRVTITADKSTSTAYMELSSLRSEDTAVYYCARDGYSLYYFDYWGQGTLVTVLEDLKNVFPPEVAVFEPSEAEISHTQKATLVCLATGFYPDHVELSWWVNGKEVHSGVCTDPQPLKEQPALQDSRYALSSRLRVSATFWQNPRNHFRCQVQFYGLSENDEWTQDRAKPVTQIVSAEAWGRYGPPCPPCPAPEFLGGPSVFLFPPKPKDTLMISRTPEVTCVVVDVSQEDPEVQFNWYVDGVEVHNAKTKPREEQFNSTYRVVSVLTVLHQDWLNGKEYKCKVSNKGLPSSIEKTISKAKGQPREPQVYTLPPCQEEMTKNQVSLWCLVKGFYPSDIAVEWESNGQPENNYKTTPPVLDSDGSFFLYSRLTVDKSRWQEGNVFSCSVMHEALHNHYTQKSLSLSLG
heavy 2: QVQLQQPGAELVKPGASVKMSCKASGYTFTSYNMHWVKQTPGRGLEWIGAIYPGNGDTSYNQKFKGKATLTADKSSSTAYMQLSSLTSEDSAVYYCARSTYYGGDWYFNVWGAGTTVTVSAASTKGPSVFPLAPCSRSTSESTAALGCLVKDYFPEPVTVSWNSGALTSGVHTFPAVLQSSGLYSLSSVVTVPSSSLGTKTYTCNVDHKPSNTKVDKRVESKYGPPCPPCPAPEFLGGPSVFLFPPKPKDTLMISRTPEVTCVVVDVSQEDPEVQFNWYVDGVEVHNAKTKPREEQFNSTYRVVSVLTVLHQDWLNGKEYKCKVSNKGLPSSIEKTISKAKGQPREPQVCTLPPSQEEMTKNQVSLSCAVKGFYPSDIAVEWESNGQPENNYKTTPPVLDSDGSFFLVSRLTVDKSRWQEGNVFSCSVMHEALHNHYTQKSLSLSLG
light 1: QIVLSQSPAILSASPGEKVTMTCRASSSVSYIHWFQQKPGSSPKPWIYATSNLASGVPVRFSGSGSGTSYSLTISRVEAEDAATYYCQQWTSNPPTFGGGTKLEIKRTVAAPSVFIFPPSDEQLKSGTASVVCLLNNFYPREAKVQWKVDNALQSGNSQESVTEQDSKDSTYSLSSTLTLSKADYEKHKVYACEVTHQGLSSPVTKSFNRGEC
light 2: DIVMTQSPDSLAVSLGERATINCKSSQSLLNSRTRKNYLAWYQQKPGQPPKLLIYWASTRQSGVPDRFSGSGSGTDFTLTISSLQAEDVAVYYCTQSHTLRTFGGGTKVEIKPDIQNPDPAVYQLRDSKSSDKSVCLFTDFDSQTQVSQSKDSDVYITDKCVLDMRSMDFKSNSAVAWSQKSDFACANAFQNSIIPEDTFFPSPESS
B2: W3278-U3T2.F18R-1.uIgG4.SP (bispecific antibody)
heavy 1: EVQLVESGGGLVQPGRSLRLSCAASGFTFNDYAMHWVRQAPGKGLEWVSTISWNSGSIGYADSVKGRFTISRDNAKKSLYLQMNSLRAEDTALYYCAKDIQYGNYYYGMDVWGQGTTVTVSSASTKGPSVFPLAPCSRSTSESTAALGCLVKDYFPEPVTVSWNSGALTSGVHTFPAVLQSSGLYSLSSVVTVPSSSLGTKTYTCNVDHKPSNTKVDKRVGGGGSGGGGSQVQLVQSGAEVKKPGSSVKVSCKASGYSFTTYYIHWVRQAPGQGLEWMGWIFPGNDNIKYSEKFKGRVTITADKSTSTAYMELSSLRSEDTAVYYCAIDSVSIYYFDYWGQGTLVTVLEDLKNVFPPEVAVFEPSEAEISHTQKATLVCLATGFYPDHVELSWWVNGKEVHSGVCTDPQPLKEQPALQDSRYALSSRLRVSATFWQNPRNHFRCQVQFYGLSENDEWTQDRAKPVTQIVSAEAWGRYGPPCPPCPAPEFLGGPSVFLFPPKPKDTLMISRTPEVTCVVVDVSQEDPEVQFNWYVDGVEVHNAKTKPREEQFNSTYRVVSVLTVLHQDWLNGKEYKCKVSNKGLPSSIEKTISKAKGQPREPQVYTLPPCQEEMTKNQVSLWCLVKGFYPSDIAVEWESNGQPENNYKTTPPVLDSDGSFFLYSRLTVDKSRWQEGNVFSCSVMHEALHNHYTQKSLSLSLG
heavy 2: EVQLVESGGGLVQPGRSLRLSCAASGFTFNDYAMHWVRQAPGKGLEWVSTISWNSGSIGYADSVKGRFTISRDNAKKSLYLQMNSLRAEDTALYYCAKDIQYGNYYYGMDVWGQGTTVTVSSASTKGPSVFPLAPCSRSTSESTAALGCLVKDYFPEPVTVSWNSGALTSGVHTFPAVLQSSGLYSLSSVVTVPSSSLGTKTYTCNVDHKPSNTKVDKRVESKYGPPCPPCPAPEFLGGPSVFLFPPKPKDTLMISRTPEVTCVVVDVSQEDPEVQFNWYVDGVEVHNAKTKPREEQFNSTYRVVSVLTVLHQDWLNGKEYKCKVSNKGLPSSIEKTISKAKGQPREPQVCTLPPSQEEMTKNQVSLSCAVKGFYPSDIAVEWESNGQPENNYKTTPPVLDSDGSFFLVSRLTVDKSRWQEGNVFSCSVMHEALHNHYTQKSLSLSLG
light 1: not shown
light 2: not shown
light 3: B1 light 2 with Q61K, H98F, T99I
notes: Human IgG4 (S228P) knobs-into-holes, same F18R-1 format as m3, so L1 probably stands twice; also called W3278-U3T2.F18R-1.ulgG4.SP

Legend:
[1] = biological target: T1, CD20 on Raji cells (CD20+/CD3- cells); assay: cell-based or functional assay
[2] = biological target: T1, CD20 on Raji cells (CD20+/CD3- cells); assay: cell-based or functional assay; remark: listed apart in the source
[3] = biological target: T1, CD20 on Raji cells (CD20+/CD3- cells); assay: cell-based or functional assay; remark: listed apart in the source
[4] = biological target: T1, CD20 on Raji cells (CD20+/CD3- cells); assay: cell-based or functional assay; remark: listed apart in the source
[5] = biological target: T1, CD20 on Raji cells (CD20+/CD3- cells); assay: flow cytometry on Raji cells (CD20+/CD3-)
Experimental: (§1) The binding of W3278 BsAb to target cells was determined by flow cytometry. Briefly, 1×10⁵/well of target cells (CD3+/CD20− cells or CD20+/CD3− cells) were incubated with serial dilutions of W3278 BsAb or human IgG4 isotype control antibody at 4° C. for 60 minutes. After incubation, cells were washed twice with cold 1% BSA/1×PBS and Alexa Fluor647 conjugated Goat anti-human IgG Fc (Jackson-109-605-098) was then added and incubated for 30 minutes at 4° C. After washing twice, the geometric mean fluorescence (MFI) of stained cells was measured using a FACS Canto II cytometer (BD Biosciences). Wells containing no antibody or fluorescent secondary antibody only were used to establish background fluorescence. The EC₅₀ values of cell binding were determined using GraphPad Prism 5 software (GraphPad Software, La Jolla, Calif.) with values calculated using a four-parameter non-linear regression analysis.

[6] = biological target: T2, CD3 on Jurkat cells (CD3+/CD20- cells) (human, UniProt P07766 23-207; P04234 22-171; P09693 23-182); assay: flow cytometry on Jurkat cells (CD3+/CD20-)
T2 construct: whole, on cells; also called human CD3; Jurkat 2B8
T2 sequence (P07766 23-207, chain 1 of 3): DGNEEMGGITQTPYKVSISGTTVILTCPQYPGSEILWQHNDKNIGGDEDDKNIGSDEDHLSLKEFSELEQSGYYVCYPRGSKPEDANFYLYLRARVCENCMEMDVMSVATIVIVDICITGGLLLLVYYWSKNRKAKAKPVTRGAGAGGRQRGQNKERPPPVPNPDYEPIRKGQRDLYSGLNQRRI
T2 sequence (P04234 22-171, chain 2 of 3): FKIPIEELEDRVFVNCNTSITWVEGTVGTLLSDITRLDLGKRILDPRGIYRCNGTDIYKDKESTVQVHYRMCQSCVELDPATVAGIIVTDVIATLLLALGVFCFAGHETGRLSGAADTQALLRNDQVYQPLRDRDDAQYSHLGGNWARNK
T2 sequence (P09693 23-182, chain 3 of 3): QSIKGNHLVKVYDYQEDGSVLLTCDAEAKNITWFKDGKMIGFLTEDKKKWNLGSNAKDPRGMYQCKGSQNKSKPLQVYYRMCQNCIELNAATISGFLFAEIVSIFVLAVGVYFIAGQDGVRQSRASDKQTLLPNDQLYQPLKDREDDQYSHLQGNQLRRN
Experimental: as §1

Row | Binder | cytotoxicity EC50, NAMALWA cells, CD8+ T cells as effectors [1] [pM] | cytotoxicity EC50, Raji cells, CD8+ T cells as effectors [1] [pM] | cytotoxicity EC50, Ramos cells, CD8+ T cells as effectors [1] [pM] | CD4+ T cell IL-2 release EC50, with Raji cells [2] [pM] | CD4+ T cell TNF-a release EC50, with Raji cells [2] [pM] | T cell CD69 expression EC50 (Table 5B), CD4+/Raji [3] [pM] | T cell CD69 expression EC50 (Table 5B), CD8+/Raji [3] [pM] | T cell CD69 expression EC50 (Table 5A as titled), CD4+/Raji [4] [pM] | T cell CD69 expression EC50 (Table 5A as titled), CD8+/Raji [4] [pM] | EC50 [5] [pM] | TOP MFI [5] [MFI] | EC50 [6] [pM] | TOP MFI [6] [MFI]
1 | B1 | 46.8 | 0.52 | 1.25 | 11.4 | 13.5 | 0.2 | 0.4 | 0.6 | 0.8 |  |  |  | 
2 | B2 |  |  |  |  |  |  |  |  |  | 1300 | 55400 | 26600 | 536
